The text below walks through data of paper PMC2878198 (Journal of the American Chemical Society, 2009).

For one data set, the target named is LovF (Aspergillus terreus, UniProt Q9Y7D5). Briefly: FTMS of ACP-bound diketide. In kind it is biochemical. To be noted: with SAM and NADPH; covalent loading on ACP.
Substrate in data set [1]: CC[C@H](C)C(=O)SCCNC(=O)CCNC(=O)[C@H](O)C(C)(C)COP(=O)(O)OP(=O)(O)OC[C@H]1O[C@@H](n2cnc3c(N)ncnc32)[C@H](O)[C@@H]1OP(=O)(O)O
Briefly: initial velocity of lovastatin formation by HPLC. It is filed as biochemical, Aspergillus terreus. To be noted: acyl donor; acyl acceptor monacolin J.

Substrate in data set [2]: CC[C@H](C)C(=O)SCCNC(C)=O
In words: initial velocity of lovastatin formation by HPLC. It is filed as biochemical, Aspergillus terreus. As to conditions: acyl donor; acyl acceptor monacolin J.

Chain of LovF (Q9Y7D5 whole entry): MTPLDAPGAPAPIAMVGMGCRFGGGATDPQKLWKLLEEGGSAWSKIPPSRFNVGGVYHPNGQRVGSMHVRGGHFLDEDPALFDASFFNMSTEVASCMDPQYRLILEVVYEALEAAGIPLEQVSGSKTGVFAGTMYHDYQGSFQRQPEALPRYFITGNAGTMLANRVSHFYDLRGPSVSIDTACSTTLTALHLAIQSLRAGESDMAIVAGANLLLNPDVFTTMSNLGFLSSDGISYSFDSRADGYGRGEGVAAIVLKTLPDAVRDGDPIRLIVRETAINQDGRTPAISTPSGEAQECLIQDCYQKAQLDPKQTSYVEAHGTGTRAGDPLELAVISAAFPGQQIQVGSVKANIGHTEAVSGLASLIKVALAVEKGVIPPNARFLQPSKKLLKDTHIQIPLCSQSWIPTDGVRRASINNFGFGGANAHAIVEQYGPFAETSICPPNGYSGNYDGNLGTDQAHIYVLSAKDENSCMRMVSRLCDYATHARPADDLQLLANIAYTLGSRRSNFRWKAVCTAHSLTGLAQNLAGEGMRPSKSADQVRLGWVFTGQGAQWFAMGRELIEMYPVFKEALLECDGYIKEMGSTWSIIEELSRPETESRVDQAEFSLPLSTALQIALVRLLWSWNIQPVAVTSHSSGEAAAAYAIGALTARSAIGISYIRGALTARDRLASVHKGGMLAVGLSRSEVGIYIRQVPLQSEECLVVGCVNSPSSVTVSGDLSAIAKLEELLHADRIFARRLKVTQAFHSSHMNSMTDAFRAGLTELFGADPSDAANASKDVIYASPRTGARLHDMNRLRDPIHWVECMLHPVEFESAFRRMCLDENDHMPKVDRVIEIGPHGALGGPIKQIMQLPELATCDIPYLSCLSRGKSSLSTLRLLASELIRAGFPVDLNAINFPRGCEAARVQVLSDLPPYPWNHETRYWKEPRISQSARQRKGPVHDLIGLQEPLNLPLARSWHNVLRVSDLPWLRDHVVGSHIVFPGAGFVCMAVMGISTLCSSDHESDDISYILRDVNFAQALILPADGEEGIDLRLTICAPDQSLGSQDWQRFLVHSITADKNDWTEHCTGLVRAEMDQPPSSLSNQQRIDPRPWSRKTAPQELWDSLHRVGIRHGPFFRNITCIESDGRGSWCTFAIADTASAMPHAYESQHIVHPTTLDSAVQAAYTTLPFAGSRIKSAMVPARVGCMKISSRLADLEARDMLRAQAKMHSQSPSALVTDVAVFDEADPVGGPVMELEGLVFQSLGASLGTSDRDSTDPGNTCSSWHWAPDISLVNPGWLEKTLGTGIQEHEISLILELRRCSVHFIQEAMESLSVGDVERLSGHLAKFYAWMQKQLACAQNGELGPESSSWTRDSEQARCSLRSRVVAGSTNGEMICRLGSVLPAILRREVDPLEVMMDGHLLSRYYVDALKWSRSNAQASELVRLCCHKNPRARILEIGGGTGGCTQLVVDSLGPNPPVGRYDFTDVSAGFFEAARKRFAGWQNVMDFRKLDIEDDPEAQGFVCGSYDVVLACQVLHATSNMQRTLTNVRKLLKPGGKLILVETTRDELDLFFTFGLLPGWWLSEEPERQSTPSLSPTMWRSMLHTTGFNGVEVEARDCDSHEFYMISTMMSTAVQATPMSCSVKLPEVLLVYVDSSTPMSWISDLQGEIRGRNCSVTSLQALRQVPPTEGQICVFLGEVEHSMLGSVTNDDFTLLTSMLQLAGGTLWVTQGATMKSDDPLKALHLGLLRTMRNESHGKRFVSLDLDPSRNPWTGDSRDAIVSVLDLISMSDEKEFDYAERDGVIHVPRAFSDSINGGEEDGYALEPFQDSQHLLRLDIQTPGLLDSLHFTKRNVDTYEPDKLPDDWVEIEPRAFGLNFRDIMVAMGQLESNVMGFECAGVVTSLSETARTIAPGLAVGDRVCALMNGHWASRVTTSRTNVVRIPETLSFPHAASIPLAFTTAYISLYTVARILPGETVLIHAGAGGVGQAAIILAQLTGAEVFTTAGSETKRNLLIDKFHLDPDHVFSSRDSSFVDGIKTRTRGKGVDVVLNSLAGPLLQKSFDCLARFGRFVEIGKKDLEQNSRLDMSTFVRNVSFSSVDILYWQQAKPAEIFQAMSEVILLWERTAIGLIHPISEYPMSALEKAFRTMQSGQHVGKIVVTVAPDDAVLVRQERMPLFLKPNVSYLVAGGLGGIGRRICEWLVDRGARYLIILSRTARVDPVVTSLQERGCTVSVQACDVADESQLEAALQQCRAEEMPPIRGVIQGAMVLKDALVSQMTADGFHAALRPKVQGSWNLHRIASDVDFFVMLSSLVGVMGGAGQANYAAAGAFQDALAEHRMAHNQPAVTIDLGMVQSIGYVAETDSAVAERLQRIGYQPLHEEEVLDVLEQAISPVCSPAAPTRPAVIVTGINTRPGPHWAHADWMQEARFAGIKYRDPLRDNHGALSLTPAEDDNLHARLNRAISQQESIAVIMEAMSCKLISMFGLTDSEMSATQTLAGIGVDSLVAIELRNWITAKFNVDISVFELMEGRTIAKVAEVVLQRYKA

As to `CC(C)(COP(=O)(O)OP(=O)(O)OC[C@H]1O[C@@H](n2cnc3c(N)ncnc32)[C@H](O)[C@@H]1OP(=O)(O)O)[C@@H](O)C(=O)NCCC(=O)NCCSC(=O)CC(=O)O` [malonyl-CoA], the “FTMS of ACP-bound diketide; LC-MS of product released by LovD” value on LovF was “we incubated LovF with malonyl-CoA, SAM and NADPH”.

B1: LovD (Aspergillus terreus) (protein)
chain: MGSIIDAAAAADPVVLMETAFRKAVKSRQIPGAVIMARDCSGNLNYTRCFGARTVRRDECNQLPPLQVDTPCRLASATKLLTTIMALQCMERGLVDLDETVDRLLPDLSAMPVLEGFDDAGNARLRERRGKITLRHLLTHTSGLSYVFLHPLLREYMAQGHLQSAEKFGIQSRLAPPAVNDPGAEWIYGANLDWAGKLVERATGLDLEQYLQENICAPLGITDMTFKLQQRPDMLARRADQTHRNSADGRLRYDDSVYFRADGEECFGGQGVFSGPGSYMKVLHSLLKRDGLLLQPQTVDLMFQPALEPRLEEQMNQHMDASPHINYGGPMPMVLRRSFGLGGIIALEDLDGENWRRKGSLTFGGGPNIVWQIDPKAGLCTLAFFQLEPWNDPVCRDLTRTFEHAIYAQYQQG
For orientation: Km means the substrate concentration at which the rate is half of its maximum. For orientation: kcat means the maximal rate divided by the concentration of active sites. By kcat/Km is commonly meant the turnover number divided by the Michaelis constant. For the molecule B1, in data set [1], the Km came out at 2.5 ± 0.31 mM, the kcat turned out to be 0.00283 ± 0.000167 s⁻¹ and the kcat/Km stood at 1.15 M⁻¹ s⁻¹. Also, in data set [2], the Michaelis-Menten constant (Km) is listed as 9.2 ± 0.9 mM, the kcat was 0.0004 ± 1.67e-05 s⁻¹ and the catalytic efficiency (kcat/Km) was found to be 0.0267 M⁻¹ s⁻¹.
